This is an account of results in patent US20040224363A1.

Test [1] has as its target putative IBC-1 receptor on G361 melanoma cells, moderately high affinity binding site. In words: Scatchard analysis of AP-IBC-1 binding to G361 melanoma cells (bound AP activity).
Test [2] deals with putative IBC-1 receptor on G361 melanoma cells, much lower affinity binding site. The description is as above.

In test [1], “alkaline phosphatase-IBC-1 (AP-IBC-1) fusion protein (from UniProt P81605 20-110) (ligand)” had a Kd of 0.0375 µM and a binding sites/cell (binding sites/cell) of 17000. In test [2], this substance displayed a Kd of 0.36 µM and a binding sites/cell (binding sites/cell) of 350000.
